Laboratory results as given in the supplement of paper PMC9112550, “Optimization of the antimicrobial peptide Bac7 by deep mutational scanning” (BMC Biology, 2022).

Test system: Escherichia coli TOP10
Assay: shrunken log2 fold change of peptide-encoding DNA abundance (4.5 h post-induction vs induction); higher = less antimicrobial activity (less host growth inhibition)
Settings: time post-induction: 4.5 h; library: site-saturation at positions 5, 18, 19, 20
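Note: peptides expressed intracellularly from a pBAD plasmid library in pooled LB shake-flask culture, induced with 0.3% L-arabinose, DNA abundance read by NGS, three biological replicates, DESeq2 with apeglm shrinkage.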

Sequence	shrunken log2 fold change
RRIRTRPPRLPRPRPRPWASPRP	-0.068
RRIRGRPPRLPRPRPRPWTHPRP	-0.0708
RRIRTRPPRLPRPRPRPDCWPRP	0.0105
RRIRARPPRLPRPRPRPKLTPRP	0.167
RRIRERPPRLPRPRPRPHSNPRP	-0.255
RRIRYRPPRLPRPRPRPIWDPRP	-0.13
RRIRMRPPRLPRPRPRPLIEPRP	1.14
RRIRSRPPRLPRPRPRPAENPRP	0.151
RRIRVRPPRLPRPRPRPFKWPRP	0.00238
RRIRMRPPRLPRPRPRPMCKPRP	0.00898
RRIRDRPPRLPRPRPRPIYYPRP	-0.253
RRIRVRPPRLPRPRPRPDFIPRP	-0.396
RRIRWRPPRLPRPRPRPKQGPRP	0.125
RRIRWRPPRLPRPRPRPHLAPRP	0.265
RRIRERPPRLPRPRPRPHSFPRP	0.0142
RRIRWRPPRLPRPRPRPSRWPRP	0.209
RRIRDRPPRLPRPRPRPCGPPRP	0.0478
RRIRIRPPRLPRPRPRPEGRPRP	-0.0382
RRIRLRPPRLPRPRPRPTCYPRP	-0.371
RRIRHRPPRLPRPRPRPIFGPRP	-0.0177
RRIRIRPPRLPRPRPRPQSWPRP	-0.0752
RRIRMRPPRLPRPRPRPTFLPRP	-0.319

Sequence	shrunken log2 fold change
RRIRIRPPRLPRPRPRPCATPRP	-0.122
RRIRDRPPRLPRPRPRPNYKPRP	-0.241
RRIRCRPPRLPRPRPRPEYAPRP	0.204
RRIRMRPPRLPRPRPRPDTGPRP	0.112
RRIRWRPPRLPRPRPRPRGKPRP	0.227
RRIRVRPPRLPRPRPRPRMPPRP	0.278
RRIRFRPPRLPRPRPRPKYFPRP	-0.758
RRIRGRPPRLPRPRPRPGMWPRP	0.78
RRIRYRPPRLPRPRPRPWSEPRP	-0.117
RRIRNRPPRLPRPRPRPDTFPRP	0.0183
RRIRSRPPRLPRPRPRPMFGPRP	-0.325
RRIRRRPPRLPRPRPRPIGFPRP	0.0265
RRIRLRPPRLPRPRPRPLECPRP	0.184
RRIRPRPPRLPRPRPRPWLFPRP	-0.0483
RRIRMRPPRLPRPRPRPKDTPRP	1.86
RRIRDRPPRLPRPRPRPMVNPRP	-0.0813
RRIRCRPPRLPRPRPRPNEVPRP	-0.153
RRIRYRPPRLPRPRPRPGGEPRP	0.173
RRIRVRPPRLPRPRPRPDWLPRP	-0.0563
RRIRHRPPRLPRPRPRPRCIPRP	-0.0991
RRIRERPPRLPRPRPRPWMVPRP	-0.685
RRIRHRPPRLPRPRPRPLHWPRP	0.0266

Sequence	shrunken log2 fold change
RRIRDRPPRLPRPRPRPWHAPRP	-0.134
RRIRQRPPRLPRPRPRPKQYPRP	-0.359
RRIRFRPPRLPRPRPRPGNAPRP	0.0998
RRIRQRPPRLPRPRPRPHAPPRP	-0.0421
RRIRPRPPRLPRPRPRPDIAPRP	-0.0378
RRIRTRPPRLPRPRPRPKRLPRP	0.2
RRIRARPPRLPRPRPRPLQEPRP	0.604
RRIRERPPRLPRPRPRPCQMPRP	-0.161
RRIRHRPPRLPRPRPRPGDRPRP	2.17
RRIRCRPPRLPRPRPRPTTDPRP	-0.0121
RRIRYRPPRLPRPRPRPKKHPRP	-0.646
RRIRQRPPRLPRPRPRPGPNPRP	-0.0457
RRIRQRPPRLPRPRPRPPNKPRP	0.116
RRIRNRPPRLPRPRPRPHHNPRP	-0.869
RRIRPRPPRLPRPRPRPCLNPRP	-0.35
RRIRTRPPRLPRPRPRPMGVPRP	-0.174
RRIRDRPPRLPRPRPRPRLAPRP	0.686
RRIRLRPPRLPRPRPRPMLCPRP	-0.0499
RRIRLRPPRLPRPRPRPPATPRP	0.725
RRIRYRPPRLPRPRPRPCYRPRP	-0.172
RRIRCRPPRLPRPRPRPGRFPRP	0.0435
RRIRNRPPRLPRPRPRPIDCPRP	-0.248

Sequence	shrunken log2 fold change
RRIRTRPPRLPRPRPRPKNAPRP	0.0264
RRIRRRPPRLPRPRPRPAEYPRP	0.0756
RRIRNRPPRLPRPRPRPCYQPRP	-0.32
RRIRPRPPRLPRPRPRPRTIPRP	0.206
RRIRQRPPRLPRPRPRPYMMPRP	0.00408
RRIRSRPPRLPRPRPRPASIPRP	7.54e-05
RRIRKRPPRLPRPRPRPQSDPRP	0.247
RRIRVRPPRLPRPRPRPYVSPRP	-0.084
RRIRWRPPRLPRPRPRPMCFPRP	0.0876
RRIRNRPPRLPRPRPRPKKEPRP	0.0493
RRIRNRPPRLPRPRPRPMQSPRP	-0.0939
RRIRKRPPRLPRPRPRPHNHPRP	-0.533
RRIRFRPPRLPRPRPRPNLTPRP	-0.347
RRIRRRPPRLPRPRPRPIRCPRP	0.334
RRIRVRPPRLPRPRPRPFFYPRP	0.0563
RRIRIRPPRLPRPRPRPRMCPRP	0.242
RRIRWRPPRLPRPRPRPEQVPRP	0.21
RRIRCRPPRLPRPRPRPICVPRP	0.0832
RRIRHRPPRLPRPRPRPERNPRP	0.036
RRIRKRPPRLPRPRPRPMIHPRP	-0.00347
RRIRPRPPRLPRPRPRPRCRPRP	0.217
RRIRYRPPRLPRPRPRPIEEPRP	0.00911

Sequence	shrunken log2 fold change
RRIRKRPPRLPRPRPRPDYRPRP	-0.157
RRIRYRPPRLPRPRPRPPWAPRP	0.449
RRIRERPPRLPRPRPRPEYWPRP	0.126
RRIRDRPPRLPRPRPRPGCTPRP	0.727
RRIRARPPRLPRPRPRPRSRPRP	0.757
RRIRYRPPRLPRPRPRPDWMPRP	0.0748
RRIRSRPPRLPRPRPRPLRHPRP	0.375
RRIRIRPPRLPRPRPRPDTTPRP	-0.243
RRIRNRPPRLPRPRPRPDWYPRP	-0.0314
RRIRKRPPRLPRPRPRPQTQPRP	0.26
RRIRIRPPRLPRPRPRPTGAPRP	-0.0341
RRIRTRPPRLPRPRPRPAIIPRP	-0.233
RRIRYRPPRLPRPRPRPSWVPRP	-0.597
RRIRKRPPRLPRPRPRPDSRPRP	-0.188
RRIRGRPPRLPRPRPRPEQSPRP	1.05
RRIRCRPPRLPRPRPRPDTMPRP	0.00262
RRIRIRPPRLPRPRPRPWVHPRP	-0.0605
RRIRDRPPRLPRPRPRPGWVPRP	0.223
RRIRCRPPRLPRPRPRPFKCPRP	-0.232
RRIRRRPPRLPRPRPRPRVKPRP	0.699
RRIRNRPPRLPRPRPRPPPDPRP	0.794
